In patent publication US20150376243A1, “Use of AXMI184 for the Control of Rootworm Insects” (ATHENIX CORP., priority 2013, published 2015):

Experiments:
[1] = system: western corn rootworm (Diabrotica virgifera); test: Root damage in T0 transgenic maize in root-trainer containers infested with western corn rootworm eggs (CRWNIS); type: in vivo; conditions: T0 maize plants containing optAxmi184 and expressing detectable AXMI184; ~125 non-diapausing eggs per plant; assessed after fifteen days; versus control plants infested in the same manner; FIG. 1
Excerpt: Transgenic maize plants transformed with an optimized version of Axmi184 (optAxmi184, set forth herein as SEQ ID NO:2) were obtained by Agrobacterium-mediated transformation. Plants shown by PCR analysis to contain the appropriate Axmi184 construct were selected, and transferred to root trainer containers.
T0 plants containing optAxmi184 were transplanted to root-trainer containers and propagated for approximately three weeks. Individual plants were then each infested with ˜125 non-diapausing western corn rootworm (Diabrotica virgifera) eggs. Plants were analyzed for expression of AXMI184 protein by Western blot analysis using an anti-AXMI184 antibody. Plants expressing detectable amounts of AXMI184 were selected for analysis. After fifteen days, the amount of root damage in each plant was assessed using the Node Injury Scale (CRWNIS) (Oleson et al. 2005. J. Econ Entomol. 98(1): 1-8), where 0.00 is no injury and 3.00 is all roots pruned to within 1.5 inches of the stalk on three entire nodes.

western corn rootworm = test: Field trial of T1 maize plants, corn rootworm root injury (CRWNIS); type: in vivo, Diabrotica virgifera; conditions: two locations in Iowa; 750 non-diapausing western corn rootworm eggs per plant; scale 0.00 no injury to 3.00 three entire nodes pruned
Method: T1 plants expressing optAxmi184 were tested at two locations in Iowa. Each experimental unit consisted of a one-row plot of maize measuring approximately 15 feet. Plots were arranged using a randomized complete block design with four replications. Efficacy against western corn rootworm was determined by evaluating up to eight maize roots per plot. Inbreds B110 and B116, a CRW-susceptible commercial hybrid, and two CRW control standards: B110 with a standard granular insecticide (FORCE® 3G), and B110 with an insecticidal seed treatment (PONCHO® 1250) were used as controls.
Fields were prepared for this study using cultural practices similar to those used in commercial maize fields in Iowa. Plants not containing transgenic events for CRW control were identified and excluded from the study using an application of 16 oz/A of glyphosate when plants were at the V1 leaf stage. Five to ten days later, the number of positive and negative plants in each plot was recorded. Negative plants were then removed and the remaining positive plants were thinned to 8 plants per row. All plants were then manually infested with non-diapausing western corn rootworm eggs. The eggs were suspended in a dilute agar solution and calibrated to deliver 750 eggs per plant for all plots.
Roots were dug, washed and evaluated for CRW injury after a period of larval feeding. […]

B1: AXMI184: Pesticidal protein SEQ ID NO:3 from Bacillus thuringiensis strain ATX14775; expressed in maize from optimized gene optAxmi184 (SEQ ID NO:2) (protein, listed as Bacillus thuringiensis)
chain: MNMNKNNTKLSARALPSFIDYFNGIYGFATGIKDIMNMIFKTDTGGDLTLDEILKNQQLLNDISGKLDGVNGSLNDLIAQGNLNTELSKEILKIANEQNQVLNDVNNKLDAINTMLHVYLPKITSMLSDVMKPNYALSMQIEYLSRQLQEISDKLDIINVNVLINSTLTEITPAYQWIKYVNEKFEELTFATETTLKVKNDSASADILDELTELTELAKSVTKNDVDGFEFYLNTFHDVMVGNNLFGRSTLKTASELIAKENVKTSGSEVGNVYNFLVVLTALQAKAFLTLTTCRKLLGLADIDYTSIMNEHLNKEKEEFRVNILPILSNTFSNPNYAKVKGSDEDAKMIVEAKPGHALVGFEISNDSMTVLKVYEAKLKQNYQVDKDSLSEVIYGDMDKLLCPDQSEKIYYTNNIVFPNEYVITKIDFTKKMKTLRYEVTANSYDSSTGEIDLNKKKVESSKAEYRTLSANNDGVYMPLGVISETFLTPINGFGLQADENSRLITLTCKSYLRELLLATDLSNKETKLIVPPNSFISNIVENGSIEEGHLEPWKANNKNAYVDHTGGVNGTKALYVHEDGGVSQFMGDKLKPKTEYVIQYTVKGKPSIHLKDENTGYILYEDTNNDLEDFQTITKRFTTGTDLMRVYLILKSQSGHEAWGDNFTILEIKPAEALVSPELINPNSWITTQGASISGDKLFISLGTNGTFRQNLSLNSYSTYSISFTASGPFNVTVRNSREVLYERNNLMSSTSHISGEFKTESNNTGLYVELSRRSGGAGHISFENISIK
Which “amount of root damage, Node Injury Scale (CRWNIS)” value [1] does the source give for B1 here?
The value was “lower root damage than control plants”.

And the “Average CRWNIS” value (western corn rootworm)?
Its value is 0.12.
